Reference: PMC5862502, “Coordinated regulation of Arabidopsis microRNA biogenesis and red light signaling through Dicer-like 1 and phytochrome-interacting factor 4”

Biological target: T1, PIF4-MBP (phytochrome-interacting factor 4) (Arabidopsis thaliana, UniProt Q8W2F3 1-430)
T1 sequence: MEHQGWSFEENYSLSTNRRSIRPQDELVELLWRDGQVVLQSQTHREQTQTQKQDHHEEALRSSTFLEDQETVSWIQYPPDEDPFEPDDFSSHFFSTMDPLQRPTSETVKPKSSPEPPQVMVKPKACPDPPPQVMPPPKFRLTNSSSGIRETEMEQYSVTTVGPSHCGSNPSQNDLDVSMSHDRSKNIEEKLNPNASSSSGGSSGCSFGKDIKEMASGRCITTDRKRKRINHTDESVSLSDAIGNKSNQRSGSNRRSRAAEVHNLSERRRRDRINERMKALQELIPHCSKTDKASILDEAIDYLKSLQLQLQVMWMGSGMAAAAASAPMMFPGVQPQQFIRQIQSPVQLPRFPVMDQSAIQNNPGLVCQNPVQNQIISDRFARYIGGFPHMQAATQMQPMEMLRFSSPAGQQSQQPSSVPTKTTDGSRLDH
Experiment: EMSA; 1 nM labeled probe; decreasing amounts of PIF4; unlabeled same-sequence competitor in lane 8; LightShift Chemiluminescent EMSA kit buffer (composition not given), 20 ul, 30 min on ice, 1x TBE polyacrylamide gel
Conditions: protein: recombinant; tags: MBP; chain copies: 2; label: 3' biotin on sense strand; blunt

B1: miR160b promoter G-box fragment (dsDNA)
DNA 1: AGACACGTGTAGAAATCTTCTAAACCC
DNA 2: GGGTTTAGAAGATTTCTACACGTGTCT
- binding result: binds
